Reference: patent US20240190950A1 (SHANGHAI JIAO TONG UNIVERSITY, published 2024)

T1: FGFR1 (protein used in the ForteBio and ELISA assays) (human, UniProt P11362 22-376, limits assumed)
T1 construct: That entry still holds signal peptide, transmembrane and kinase parts; also called human FGFR1
T1 sequence: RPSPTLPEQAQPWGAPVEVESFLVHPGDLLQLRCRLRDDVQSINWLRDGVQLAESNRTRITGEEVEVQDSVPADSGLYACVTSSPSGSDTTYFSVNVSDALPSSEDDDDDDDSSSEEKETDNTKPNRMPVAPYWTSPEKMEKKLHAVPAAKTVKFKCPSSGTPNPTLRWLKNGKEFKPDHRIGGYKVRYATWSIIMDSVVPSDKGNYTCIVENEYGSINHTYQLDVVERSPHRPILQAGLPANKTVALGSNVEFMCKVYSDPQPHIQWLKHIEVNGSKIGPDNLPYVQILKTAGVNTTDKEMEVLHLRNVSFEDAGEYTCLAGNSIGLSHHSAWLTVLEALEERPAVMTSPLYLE

B1: Gremlin1 (human gremlin 1, hGREM1) (ligand)
chain: KKKGSQGAIPPPDKAQHNDSEQTQSPQQPGSRNRGRGQGRGTAMPGEEVLESSQEALHVTERKYLKRDWCKTQPLKQTIHEEGCNSRTIINRFCYGQCNSFYIPRHIRKEEGSFQSCSFCKPKKFTTMMVTLNCPELQPPTKKKRVTRVKQCRCISIDLD
modifications: biotin label in the ForteBio assay (site not stated)
notes: also called Gremlin1-biotin; Flag-tagged GREM1

Experiments:
[1] = biological target: B1; test: ELISA, antibody titrated on Gremlin1 (Ab is anti-human-Gremlin1 14E3)
[2] = biological target: T1, FGFR1 (protein used in the ForteBio and …); test: ForteBio (the text calls it surface plasmon resonance analysis); Gremlin1-biotin immobilized on streptavidin sensor, FGFR1 in solution
Description: We next asked the mechanism leading to the activation of the FGFR1/MEK/ERK signaling pathway by GREM1. We performed surface plasmon resonance analysis (Fortebio) to first assess whether GREM1 can bind to FGFR1. […] Computer simulation imitated that GREM1 binds to the extracellular domain of FGFR1 as a dimer (FIG. 9B). […] In addition, the activation of GREM1 on the FGFR1/MEK/ERK signaling pathway could be attenuated by adding excessive amount of soluble FGFR1 (FIG. 9G).

| EC50 (read off the curve) [1] [ng/mL] | Kd [2] [nM] | Binder |
| --- | --- | --- |
| ~10 |  | 14E3 (antibody, IgG2a, V domains shown, also called anti-human-Gremlin1 (14E3); anti-human-GREM1 antibody 14E3) VH: QIQLVQSGPELKKPGETVKISCKTSGSTFTTYGMAWMKQAPGKGLTWMGWINTLSGEPTYADDFKGRFAFSLKTSANTAYLQINNLKNEDAATYFCAREPMDYWGQGTSVIVSS VL: not shown |
|  | 10.6 | B1 |
